Here are results for three molecules from patent publication US20100028952A1, “FERMENTATION AND PURIFICATION OF ACTINOMADURA CHROMOPROTEIN AND RELATED SPECIES” (WYETH, priority 2006, published 2010).

In one data set the test system is histone H1 in HeLa cells. In words: Digestion of histone H1 in HeLa cells, immunoblot. The class given is cell-based. Particulars: HeLa cells incubated overnight at 37° C.; anti-histone H1 immunoblot. As to the method: To study whether the digestion of histones by the chromoprotein occurs in intact cells, HeLa cells were incubated with compounds overnight at 37° C. Cell lysates were analysed by SDS-PAGE and protein immunoblotting using anti-histone H1 antibodies (Santa Cruz Biotechnologies). […] This activity can contribute to antitumor effects by digesting histones in chromatin, making the DNA more accessible for cleavage. This appears to be a unique activity of the chromoprotein enediynes.
In general terms: Immunoblotting shows a protein as a band on a membrane.

A further data set addresses T1, Human PGP (MDR1) (Homo sapiens, UniProt P08183).
T1 construct: cells expressing clinically relevant levels of MDR1 (KB-8-5 cells) remain sensitive to the complex; endogenous in cells; host or cells: KB (P-GP -), KB-8-5 (+), KB-V-1 (+++)
In words: Transport by P-GP (MDR-1). The class given is cell-based. Particulars: result in words. The source says:
Human PGP (MDR1) is an ATP-dependent efflux pump which is capable of transporting many drugs across cell membranes. High level expression of this protein has been linked to multiple drug resistance of tumors. […] The protein component of the chromoprotein probably protects the chromophore from drug efflux mediated by MDR1, and may be responsible for the beneficial antitumor effects in colon cell lines which often express MDR1.

The subject of another data set is Histone H1. In words: Digestion of histone H1, SDS-PAGE. The class given is biochemical. Particulars: 50 mM Tris-Cl, pH 7.5 overnight at 37° C. As to the method:
Histone H1 was incubated with various concentrations of the chromoprotein in 50 mM Tris-Cl, pH 7.5 overnight at 37° C. (FIG. 29) Digestions of histone were assessed by SDS-polyacrylamide gel electrophoresis (SDS-PAGE), followed by staining of the gel with GelCode Blue (Pierce Biotechnology, Inc, Rockford, Ill.).

Data set [1] has as its system HCT116 colon carcinoma cells. Briefly: Uptake of FITC-tagged chromoprotein and apoprotein, fluorescent microscopy / flow cytometry. The format is cell-based. As to the method:
To determine the mechanism by which the chromoprotein enters cells and exerts its biological activity, the chromoprotein was labeled with a fluorescent tag (FITC) using EZ-Label fluorescent labeling kit (Pierce Biotechnology), according to the manufacturer's recommendation. […] Uptake of labeled material by HCT116 colon carcinoma cells was studied by fluorescent microscopy. Optimum incubation time with cells was 3-6 hours. […] Even though nuclear accumulation is low, the amount is most likely sufficient for biological activity given the potency of the complex.
To determine whether an intact complex of chromophore and apoprotein is required for cellular and nuclear entry, the chromoprotein and apoprotein were labeled with FITC. Uptake of labeled material was studied by fluorescent microscopy. Uptake was similar for both apoprotein and chromoprotein.
To determine whether the entry of chromoprotein into cells is mediated by a saturable (e.g. cell surface receptor-dependent) process, HCT116 cells were incubated with FITC-labeled chromoprotein (FIG. 37, right panel) or apoprotein (FIG. 37, left panel) in the absence or presence of 10-fold excess of unlabeled reagent (unlabelled chromoprotein or apoprotein, respectively). Cells were analysed by fluorescent microscopy (left) or flow cytometry (right). […] Furthermore, a single homogeneous peak observed in flow cytometry histograms indicated uniform uptake of labeled reagent by all cells. Numbers in the histograms are mean channel numbers (FITC fluorescence).
Other means by which a protein complex can enter cells is pinocytosis, where caveolae in the surface of the cell pinch off to form pinosomes that are free within the cytoplasm of the cell. Since pinocytosis is an energy-dependent process that requires a functional tubulin cytoskeletal network, we examined the effect of sodium azide, an energy uncoupling agent and nocodazole, an agent which disrupts the tubulin cytoskeleton on cellular uptake. HCT116 cells were treated with FITC-labeled apoprotein in the absence or presence of sodium azideor nocodazole. […] Since the data appears to rule out a receptor-mediated process, pinocytosis is most likely involved.
Background: In flow cytometry, cells or beads pass a laser one at a time.

In data set [2] the test system is human tumor cell line panel. Briefly: Human tumor cell line panel (whole panel). The class given is cell-based. Particulars: result in words.

T1 sequence (P08183 whole entry): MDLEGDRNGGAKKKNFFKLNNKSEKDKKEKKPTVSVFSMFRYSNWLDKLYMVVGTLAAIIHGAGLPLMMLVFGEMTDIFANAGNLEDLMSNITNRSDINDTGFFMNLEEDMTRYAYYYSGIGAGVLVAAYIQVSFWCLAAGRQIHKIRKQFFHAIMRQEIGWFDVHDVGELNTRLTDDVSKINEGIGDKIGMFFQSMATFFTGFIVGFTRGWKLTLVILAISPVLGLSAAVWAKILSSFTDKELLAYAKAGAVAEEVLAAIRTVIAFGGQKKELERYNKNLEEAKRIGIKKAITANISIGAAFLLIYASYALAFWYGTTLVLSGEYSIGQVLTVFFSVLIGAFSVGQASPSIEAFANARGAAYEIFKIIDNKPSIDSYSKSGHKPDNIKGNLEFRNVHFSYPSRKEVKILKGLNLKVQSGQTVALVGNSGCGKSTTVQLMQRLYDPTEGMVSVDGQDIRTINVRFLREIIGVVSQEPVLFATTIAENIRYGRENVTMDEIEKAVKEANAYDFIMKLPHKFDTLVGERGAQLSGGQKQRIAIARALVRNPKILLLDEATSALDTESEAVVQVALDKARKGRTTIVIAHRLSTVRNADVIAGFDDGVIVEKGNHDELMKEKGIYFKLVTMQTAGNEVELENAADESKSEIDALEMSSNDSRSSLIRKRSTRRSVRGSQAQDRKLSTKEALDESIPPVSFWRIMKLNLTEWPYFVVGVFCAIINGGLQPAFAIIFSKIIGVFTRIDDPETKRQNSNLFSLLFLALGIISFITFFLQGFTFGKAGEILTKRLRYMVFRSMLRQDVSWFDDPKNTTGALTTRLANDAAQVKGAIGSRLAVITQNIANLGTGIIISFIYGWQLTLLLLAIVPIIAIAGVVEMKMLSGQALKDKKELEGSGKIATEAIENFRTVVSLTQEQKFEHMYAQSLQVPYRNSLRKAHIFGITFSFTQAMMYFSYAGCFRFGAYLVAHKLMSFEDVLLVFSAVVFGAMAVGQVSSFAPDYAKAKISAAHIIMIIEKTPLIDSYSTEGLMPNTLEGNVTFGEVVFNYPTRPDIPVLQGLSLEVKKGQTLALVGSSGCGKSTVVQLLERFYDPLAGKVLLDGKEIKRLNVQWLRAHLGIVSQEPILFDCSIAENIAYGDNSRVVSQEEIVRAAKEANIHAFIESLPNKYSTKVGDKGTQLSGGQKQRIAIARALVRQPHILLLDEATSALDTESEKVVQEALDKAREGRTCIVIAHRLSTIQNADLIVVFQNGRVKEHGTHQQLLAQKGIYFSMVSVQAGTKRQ

Turning to bleomycin, the “histone H1 in cells” value in the data set with histone H1 in HeLa cells is “No effect”.

In the case of calicheamicin [reference compound], on Human PGP (MDR1), the MDR1 substrate result was “good substrate for MDR1”. The “digestion of histone H1” value in the data set on Histone H1 is recorded as “did not cleave histone H1”. For the same molecule, in the data set with histone H1 in HeLa cells, the “histone H1 in cells” value is recorded as “No effect”.

B1: apoprotein: 21G792 apoprotein (SEQ ID NO:150), protein component of the chromoprotein without chromophore (protein)
chain: DTVTVNYDCVGYPSDIAVTIDAPATAGVGDTATFEVSSVVTTGAPQDLPAGEVVTDMAIVVGGAQSGTITASGLTNEATPAGQPVNMVGGEAQITFTSAGSVTFTPSTTTQVDNGAQCTVVGEAPVGATTVVS
modifications: Actinomadura sp. 21G792
Regarding B1, the “competition of label by unlabeled reagent” value in data set [1] (10-fold excess of unlabeled reagent) is on record as “No competition of label was observed”. Further, in data set [1] (FITC labeled), the “uptake of labeled material, apoprotein versus chromoprotein” value is “similar”. For the same molecule, the “effect of sodium azide or nocodazole on uptake of label” value in data set [1] (FITC-labeled, nocodazole 100 nM) was “Both treatments inhibited uptake of label”. For the same molecule, in the data set with Histone H1, the “digestion of histone H1” value is “no activity”. In addition, the “in vitro anti-tumor activity” value in data set [2] was “inactive”.
